Data: US12551542B2, “Polymeric nanoparticles that target liver sinusoidal endothelial cells to induce antigen-specific immune tolerance” (The Regents of the University of California, priority 2019, dated 2026)
No end group written: not given here.

Key:
[1] = system: LSECs; experiment: NP-associated FITC-OVA uptake, flow cytometry; assay type: cell-based, mouse
Description: Following OVA-FITC labeling, the antigen was encapsulated in NPs as described in Example 1 Materials and Methods. LSECs and KUP5 cells were incubated with FITC-OVA or NP^FITC-OVA for the indicated time periods. After being washed in PBS, the % FITC-OVA^+ cells and the cellular mean fluorescence intensity (MFI) were analyzed in a BD LSRII (IMED) analytic flow cytometer by Flowjo® software. Panels (A, B): Kinetics of NP-mediated antigen uptake in LSECs and KUP5 cells, respectively. Panels (C, D): Histograms depicting the % and MFI of antigen-positive LSECs. Data are expressed as the mean±SEM (n=6); *p<0.05; **p<0.01; ***[…] (one-way ANOVA followed by Tukey's test).
To quantitatively evaluate antigen uptake into cells, OVA was labeled with FITC as previously described. Following the incorporation of FITC-OVA into NPs, LSECs and KUP5 cells were incubated with FITC-OVA or the labeled particles for 24 h. Cells were collected, washed with PBS, and analyzed in a BD LSRII (IMED) analytic flow cytometer. Flowjo software (Ashland, OR) was used to quantify the percentage and mean fluorescence intensity of the FITC-OVA+-labeled cells.

[2] = biological target: stabilin-1 scavenger receptor on liver sinusoidal endothelial cells (LSECs) (mouse, UniProt Q8R4Y4 26-2571); experiment: cell-based or functional assay
[3] = biological target: stabilin-2 scavenger receptor on liver sinusoidal endothelial cells (LSECs) (mouse, UniProt Q8R4U0 29-2559); experiment: cell-based or functional assay
[4] = system: mice; experiment: Biodistribution of DyLight680-OVA NPs after IV injection, ex vivo IVIS imaging; parameters: species or system mouse; conditions: 25 μg OVA in 500 μg NPs per animal, 24 h
Excerpt: Panel (B): Confocal microscopy to show the intrahepatic distribution of free or encapsulated labeled OVA. […] The red and green fluorescence colors represent DyLight680-labeled OVA and isolectin B4 stained LSECs, respectively. Scale bars correspond to 50 μm. Data are expressed as the mean±SEM (n=6); *p<0.05; **p<0.01; ***[…] (one-way ANOVA followed by Tukey's test).
FIG. 17A schematically illustrates two main strategies for inducing immune tolerance. Strategy 1 depicts a liver-targeting nanoparticle for allergen delivery to LSEC in the liver, where allergen processing and presentation to naïve T-cells induce antigen-specific Foxp3^+ Tregs, which are recruited to the site of allergic inflammation in the lung. […] FIG. 17B schematically illustrates the PLGA nanoparticle synthesis process, including carrier loading with cargo (allergen, epitopes, pharmaceutical agents), by a w/o/w double emulsion method combined with solvent removal. […] The red and green fluorescence colors represent Dylight680-labeled OVA and isolectin B4 stained LSECs, respectively. […]
The near-infrared fluorescent dye, DyLight680 (ex=692, em=712), was used to label OVA, which was subsequently encapsulated in the NPs. […] The data were analyzed using Living Image software (PerkinElmer, version 4.5) and were expressed as the fluorescence intensity in the region of interest. […]

stabilin-2 scavenger receptor on liver sinusoidal endothelial cells (LSECs), sequence (Q8R4U0 29-2559): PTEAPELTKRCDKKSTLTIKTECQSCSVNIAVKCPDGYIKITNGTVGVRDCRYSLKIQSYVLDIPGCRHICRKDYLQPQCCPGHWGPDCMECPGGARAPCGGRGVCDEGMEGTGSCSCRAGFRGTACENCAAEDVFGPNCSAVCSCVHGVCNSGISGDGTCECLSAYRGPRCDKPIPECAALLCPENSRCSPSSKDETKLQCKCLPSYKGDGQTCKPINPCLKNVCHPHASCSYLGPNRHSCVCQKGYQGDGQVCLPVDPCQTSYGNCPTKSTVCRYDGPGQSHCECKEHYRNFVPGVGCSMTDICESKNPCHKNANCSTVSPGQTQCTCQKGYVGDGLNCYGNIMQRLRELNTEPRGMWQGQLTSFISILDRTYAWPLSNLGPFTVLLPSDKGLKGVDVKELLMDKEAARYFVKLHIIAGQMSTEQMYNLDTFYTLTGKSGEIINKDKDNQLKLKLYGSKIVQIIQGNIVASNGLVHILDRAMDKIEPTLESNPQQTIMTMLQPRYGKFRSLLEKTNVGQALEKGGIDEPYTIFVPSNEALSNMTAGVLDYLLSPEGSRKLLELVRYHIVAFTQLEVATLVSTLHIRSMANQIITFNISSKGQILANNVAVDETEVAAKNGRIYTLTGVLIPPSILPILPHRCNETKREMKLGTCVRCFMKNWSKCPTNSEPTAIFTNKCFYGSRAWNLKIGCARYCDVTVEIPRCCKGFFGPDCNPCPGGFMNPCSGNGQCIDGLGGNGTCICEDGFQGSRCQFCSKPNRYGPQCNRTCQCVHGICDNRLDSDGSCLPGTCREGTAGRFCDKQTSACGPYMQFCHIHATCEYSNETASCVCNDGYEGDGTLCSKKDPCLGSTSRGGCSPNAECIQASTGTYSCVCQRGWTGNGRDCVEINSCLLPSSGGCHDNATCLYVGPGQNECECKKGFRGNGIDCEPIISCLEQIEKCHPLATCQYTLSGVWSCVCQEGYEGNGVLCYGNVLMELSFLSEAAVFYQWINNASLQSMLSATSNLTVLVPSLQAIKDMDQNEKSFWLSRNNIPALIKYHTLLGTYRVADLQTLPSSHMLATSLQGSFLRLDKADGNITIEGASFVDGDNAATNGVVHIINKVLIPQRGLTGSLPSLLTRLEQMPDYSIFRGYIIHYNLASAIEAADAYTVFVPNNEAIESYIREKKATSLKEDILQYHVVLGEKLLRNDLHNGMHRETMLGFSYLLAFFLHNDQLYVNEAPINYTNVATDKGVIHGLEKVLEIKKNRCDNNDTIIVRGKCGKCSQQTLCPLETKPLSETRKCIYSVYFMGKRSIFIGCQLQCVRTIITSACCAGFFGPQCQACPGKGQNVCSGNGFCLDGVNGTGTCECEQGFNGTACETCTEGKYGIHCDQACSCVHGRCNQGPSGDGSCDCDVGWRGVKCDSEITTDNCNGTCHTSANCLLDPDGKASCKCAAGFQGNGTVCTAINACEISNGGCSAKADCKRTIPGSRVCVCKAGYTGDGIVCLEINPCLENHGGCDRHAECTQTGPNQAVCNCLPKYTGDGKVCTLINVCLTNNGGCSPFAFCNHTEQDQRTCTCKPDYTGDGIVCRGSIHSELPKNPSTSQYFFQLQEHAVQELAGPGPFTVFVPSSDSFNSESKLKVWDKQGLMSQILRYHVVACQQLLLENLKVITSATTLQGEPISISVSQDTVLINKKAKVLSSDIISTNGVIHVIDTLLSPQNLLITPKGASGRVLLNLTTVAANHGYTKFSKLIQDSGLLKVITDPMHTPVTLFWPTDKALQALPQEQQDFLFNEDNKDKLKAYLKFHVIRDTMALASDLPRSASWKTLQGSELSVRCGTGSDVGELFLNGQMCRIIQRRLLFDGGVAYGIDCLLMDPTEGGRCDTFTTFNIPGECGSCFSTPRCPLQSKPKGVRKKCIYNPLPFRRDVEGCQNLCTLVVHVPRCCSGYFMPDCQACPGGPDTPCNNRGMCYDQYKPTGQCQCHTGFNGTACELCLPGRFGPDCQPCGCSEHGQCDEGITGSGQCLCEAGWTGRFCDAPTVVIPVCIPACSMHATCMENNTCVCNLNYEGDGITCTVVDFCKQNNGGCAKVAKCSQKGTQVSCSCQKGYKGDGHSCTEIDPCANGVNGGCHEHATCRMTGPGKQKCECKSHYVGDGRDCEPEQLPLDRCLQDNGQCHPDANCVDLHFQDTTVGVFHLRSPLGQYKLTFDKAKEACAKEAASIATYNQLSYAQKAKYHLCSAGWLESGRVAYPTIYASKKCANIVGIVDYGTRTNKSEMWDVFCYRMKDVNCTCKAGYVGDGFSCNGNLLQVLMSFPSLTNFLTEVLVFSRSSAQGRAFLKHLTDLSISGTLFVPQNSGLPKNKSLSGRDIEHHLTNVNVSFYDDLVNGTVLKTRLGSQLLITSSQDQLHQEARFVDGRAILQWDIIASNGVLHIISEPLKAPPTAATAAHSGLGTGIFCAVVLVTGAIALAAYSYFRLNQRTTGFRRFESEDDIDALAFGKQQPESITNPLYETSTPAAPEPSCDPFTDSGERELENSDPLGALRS
stabilin-1 scavenger receptor on liver sinusoidal endothelial cells (LSECs), sequence (Q8R4Y4 26-2571): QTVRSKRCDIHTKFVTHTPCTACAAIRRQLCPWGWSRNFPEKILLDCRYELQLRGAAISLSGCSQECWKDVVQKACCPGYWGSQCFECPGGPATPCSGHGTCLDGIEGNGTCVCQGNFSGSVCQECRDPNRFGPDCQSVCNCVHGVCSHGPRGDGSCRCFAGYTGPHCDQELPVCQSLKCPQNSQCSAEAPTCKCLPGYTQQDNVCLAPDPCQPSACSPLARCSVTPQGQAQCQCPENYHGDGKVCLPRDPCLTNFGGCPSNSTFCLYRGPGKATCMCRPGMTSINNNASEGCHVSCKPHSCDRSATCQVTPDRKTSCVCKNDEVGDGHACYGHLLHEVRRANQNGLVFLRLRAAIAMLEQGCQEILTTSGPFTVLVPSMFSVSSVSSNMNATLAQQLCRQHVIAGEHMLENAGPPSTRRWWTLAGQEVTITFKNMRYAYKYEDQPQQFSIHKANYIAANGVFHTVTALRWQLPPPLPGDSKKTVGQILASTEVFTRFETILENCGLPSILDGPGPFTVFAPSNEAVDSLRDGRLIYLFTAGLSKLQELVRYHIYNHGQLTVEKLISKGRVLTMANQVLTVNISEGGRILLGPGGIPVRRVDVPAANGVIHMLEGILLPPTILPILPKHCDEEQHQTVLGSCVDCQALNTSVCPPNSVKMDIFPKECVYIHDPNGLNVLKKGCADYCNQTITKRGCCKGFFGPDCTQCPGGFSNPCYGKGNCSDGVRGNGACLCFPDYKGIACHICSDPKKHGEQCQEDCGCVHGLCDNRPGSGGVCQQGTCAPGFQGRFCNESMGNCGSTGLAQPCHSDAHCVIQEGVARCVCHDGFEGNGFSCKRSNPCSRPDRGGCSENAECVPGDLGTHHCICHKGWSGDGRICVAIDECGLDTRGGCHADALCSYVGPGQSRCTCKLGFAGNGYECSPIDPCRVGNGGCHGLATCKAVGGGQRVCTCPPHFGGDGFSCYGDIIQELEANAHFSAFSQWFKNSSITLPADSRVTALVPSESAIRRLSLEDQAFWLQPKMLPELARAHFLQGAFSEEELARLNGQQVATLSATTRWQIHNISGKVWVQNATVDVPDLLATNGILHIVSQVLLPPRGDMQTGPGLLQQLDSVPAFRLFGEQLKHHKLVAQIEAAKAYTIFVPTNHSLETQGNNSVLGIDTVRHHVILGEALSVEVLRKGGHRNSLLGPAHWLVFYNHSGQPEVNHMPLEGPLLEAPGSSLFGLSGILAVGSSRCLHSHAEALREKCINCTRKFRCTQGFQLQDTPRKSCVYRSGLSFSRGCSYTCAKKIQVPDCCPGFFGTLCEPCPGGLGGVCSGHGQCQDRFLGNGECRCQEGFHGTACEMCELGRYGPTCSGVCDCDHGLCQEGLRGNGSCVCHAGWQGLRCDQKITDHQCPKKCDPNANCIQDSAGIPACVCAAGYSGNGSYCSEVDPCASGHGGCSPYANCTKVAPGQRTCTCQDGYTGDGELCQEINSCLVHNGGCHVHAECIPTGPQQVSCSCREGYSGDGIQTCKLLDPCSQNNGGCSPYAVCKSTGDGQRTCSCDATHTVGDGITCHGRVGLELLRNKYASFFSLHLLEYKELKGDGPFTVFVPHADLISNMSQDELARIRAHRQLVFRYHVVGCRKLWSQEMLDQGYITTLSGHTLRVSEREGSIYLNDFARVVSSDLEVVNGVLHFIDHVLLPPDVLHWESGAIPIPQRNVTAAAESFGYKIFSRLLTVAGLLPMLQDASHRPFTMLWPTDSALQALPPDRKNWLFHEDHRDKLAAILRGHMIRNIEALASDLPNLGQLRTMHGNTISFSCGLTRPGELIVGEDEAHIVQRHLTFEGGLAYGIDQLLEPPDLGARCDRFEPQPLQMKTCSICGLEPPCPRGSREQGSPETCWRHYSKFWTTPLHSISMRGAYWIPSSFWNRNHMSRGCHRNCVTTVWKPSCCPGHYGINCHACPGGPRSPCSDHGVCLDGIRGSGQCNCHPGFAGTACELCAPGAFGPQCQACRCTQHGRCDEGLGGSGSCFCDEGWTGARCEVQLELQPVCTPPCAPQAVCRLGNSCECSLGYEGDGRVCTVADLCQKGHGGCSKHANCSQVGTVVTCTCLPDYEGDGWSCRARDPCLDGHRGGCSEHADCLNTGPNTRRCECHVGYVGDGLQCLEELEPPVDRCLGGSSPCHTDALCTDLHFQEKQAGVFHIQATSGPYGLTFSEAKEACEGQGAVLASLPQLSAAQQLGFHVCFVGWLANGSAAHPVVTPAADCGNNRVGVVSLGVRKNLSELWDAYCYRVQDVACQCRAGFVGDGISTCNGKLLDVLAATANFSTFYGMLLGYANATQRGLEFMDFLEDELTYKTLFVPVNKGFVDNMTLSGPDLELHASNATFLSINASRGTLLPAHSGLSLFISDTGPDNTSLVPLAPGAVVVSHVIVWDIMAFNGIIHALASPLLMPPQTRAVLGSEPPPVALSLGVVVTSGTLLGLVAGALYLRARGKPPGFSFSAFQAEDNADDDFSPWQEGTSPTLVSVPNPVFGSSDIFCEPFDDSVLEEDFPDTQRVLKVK

In the case of “FITC-OVA: fluorescein isothiocyanate (FITC)-labeled OVA, not encapsulated”, the “NP-mediated FITC-OVA uptake (OVA fluorescence intensity)” value [1] is reported as “No significant uptake”.

B1: ApoB peptide (ApoBP), RLYRKRGLK, containing a GGC tag, conjugated to the surface of OVA-encapsulating PLGA nanoparticles (peptide)
peptide: RLYRKRGLK
modifications: also: GGC tag at one end, orientation unclear, tag Cys thioether-linked to maleimide (NAEM) on PLGA nanoparticle
For B1, the “percentage of OVA-positive LSECs (flow cytometry, uptake of nanoparticle-encapsulated FITC-OVA)” value [2] was ~2 fold and the “percentage of OVA-positive LSECs (flow cytometry, uptake of nanoparticle-encapsulated FITC-OVA)” value [3] was ~2 fold.

B2: non-encapsulated fluorescent OVA: DyLight680-labeled ovalbumin injected free, not encapsulated (protein, UniProt P01012 2-386, looked up)
Ovalbumin: GSIGAASMEFCFDVFKELKVHHANENIFYCPIAIMSALAMVYLGAKDSTRTQINKVVRFDKLPGFGDSIEAQCGTSVNVHSSLRDILNQITKPNDVYSFSLASRLYAEERYPILPEYLQCVKELYRGGLEPINFQTAADQARELINSWVESQTNGIIRNVLQPSSVDSQTAMVLVNAIVFKGLWEKAFKDEDTQAMPFRVTEQESKPVQMMYQIGLFRVASMASEKMKILELPFASGTMSMLVLLPDEVSGLEQLESIINFEKLTEWTSSNVMEERKIKVYLPRMKMEEKYNLTSVLMAMGITDVFSSSANLSGISSAESLKISQAVHAAHAEINEAGREVVGSAEAGVDAASVSEEFRADHPFLFCIKHIATNAVLFFGRCVSP
modifications: DyLight680 label
With B2 the “organ distribution of labeled OVA (IVIS)” value [4] was “kidney”.
